Molecular target: T1, 胃蛋白酶原I (Pepsinogen I) (Homo sapiens (Human), UniProt P0DJD7 63-388, limits assumed)
T1 construct: also called PGI; PG I
Test: ELISA, VHH-pIII in bacterial culture supernatant incubated with PGI antigen; kd derived from binding strength

T1 sequence (P0DJD7 63-388 limits assumed): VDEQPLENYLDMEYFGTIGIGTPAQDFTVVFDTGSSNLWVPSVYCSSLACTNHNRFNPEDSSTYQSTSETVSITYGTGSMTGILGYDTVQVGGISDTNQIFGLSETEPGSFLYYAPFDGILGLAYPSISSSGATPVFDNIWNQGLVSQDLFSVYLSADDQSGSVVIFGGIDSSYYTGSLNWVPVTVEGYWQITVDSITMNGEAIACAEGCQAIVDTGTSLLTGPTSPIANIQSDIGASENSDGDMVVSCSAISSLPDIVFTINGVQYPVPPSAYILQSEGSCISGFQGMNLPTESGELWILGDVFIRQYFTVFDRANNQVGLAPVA

| Binder | Kd |
| --- | --- |
| 单抗PGI_2F1 (VHH) VHH: QVQLVESGGGLVQTGDSLKLSCLASGRTFSSRAMGWFRQAPGKEREFVAAISTSGVLKYYAPSVKGRFTISRDNAKNTMYLEMNSPEPEDTAVYYCAANGPPFGAYWWPTAREYDAWGQGTQVTVSS | 404 nM |
| 单抗PGI_1G9 (VHH) VHH: QVQLVQSGGGSAHLGGSLRLSCAASGFIFSDYYMAWVRQAPGKEREWVSEINTSGRTYYADSVKGRFTISRDNAKNTLYLQMDSLKPEDTAVYYCYVHRSSIFTNREYWGQGTQVTVSS | 1030 nM |
| 单抗PGI_1H10 (VHH) VHH: QVQLVQSGGGLVQAGGSLRLSCVVSGFNFSSFDRYTMSWVRQIPGKGLEWVSAINGGGIKTAYADSVKGRFTISRDNAKNTVYLQMNDLKPADTAVYYCTFTRWLVRGDYWGQGTQVTVSS | 123 nM |
